From patent publication US20090203610A1, “METHODS OF TREATING OBESITY OR DIABETES USING NT-4/5” (RINAT NEUROSCIENCE CORPORATION, priority 2004, published 2009)

Tests used:
human TrkC = target: T1, human TrkC (Homo sapiens, UniProt Q16288); experiment: Receptor tyrosine phosphorylation in trkC expressing cell line; assay type: cell-based
T1 construct: expressed in transfected cells
Description: (§1) Assays of TrkB specific activation by pegylated NT-4/5: Stable cell lines expressing human TrkA, TrkB or TrkC were used to determine the functional activity, i.e. receptor phosphorylation, of NT-4/5 and pegylated NT-4/5 as previously described (Sadick et al. Experimental Cell Research 234: 354-361, 1997).
as §1, with “and different forms of” for “and”

db/db mice = experiment: Dose response of NT-4/5 on food intake of db/db mice (Example 2); assay type: in vivo
Protocol: Db/db mice maintained as described in Example 1 were divided into five groups (groups 1-5). Group 1 (7 mice) were administered with vehicle (PBS). Group 2 (7 mice), group 3 (8 mice), group 4 (8 mice), group 5 (8 mice) were each administered with NT-4/5 at the doses of 2 mg/kg, 5 mg/kg, 10 mg/kg, and 20 mg/kg, respectively. Both the vehicle and NT-4/5 were administered to each group of the mice subcutaneously once daily for five days. One day before beginning the treatment (T0), blood samples were collected from the mice as described previously for the determination of baseline levels of serum biomarkers (glucose, triglyceride, and cholesterol). Similarly, at day 6 (T6), blood samples were collected for the determination of serum biomarker levels. The blood samples were treated in the same manner as described in Example 1.
[…] Individual body weights were also measured daily from 6 days before the treatment (T-5) to day 7 (T7).

[1] = tested on: NONcNZO-10 polygenic obese mice; experiment: Water intake, electrolyte balance and endocrine functions in NONcNZO-10 mice (Example 4); assay type: in vivo
Description: Test animals: 40 male NONcNZO-10 polygenic obese mice obtained from Jackson Laboratory at 10 weeks of age weighing in the range of 26-32 g were used in this study.
Administration of NT-4/5: NT-4/5 was produced in E. coli as descried in U.S. Pat. No. 6,184,360. The mice were divided into 6 groups of equivalent body weight and baseline blood glucose distribution (6-7 mice per group). […] A “paired-fed” control group received daily injection of vehicle, but were only fed with the same amount of food the 3 mg/kg group consumed the previous day. On the day when the treatment started (day 1), a baseline blood samples were collected for measuring glucose and triglyceride. Triglyceride level was measured on day 10. At the end of the study (day 12), a terminal blood sample was collected to determine glucose, triglyceride, electrolytes (Na, K, Cl), testoterone, corticosterone, thyroid hormone (total T4) and thyroid stimulating hormone (TSH) levels. Electrolytes, free testosterone, T4 and TSH levels of serum samples were measured by AniLytics (Gaithesburg, M.D) according to the standard protocols employed by the vendor. Other analytes were measured as described above. Body weight, food intake were monitored 5 days per week through out the entire study. Daily water intake was measured from day 5 through day 7.
The effects of NT-4/5 treatment on water intake, electrolyte balance and endocrine functions were also tested. Water intake was measured from day 5 through 7. The electrolyte (i.e., Na, K, and Cl) concentrations were measured using the terminal blood samples taken on day 12. […] One way ANOVA followed by Dunnett's post-test were used for statistical analysis.

DIO mice = experiment: Body weight, food intake, body composition and bone density (PIXImus) in DIO mice (Example 9); assay type: in vivo
Description: Test animals: Mice with diet induced obesity (DIO) were used in this study. 29 male C57BL/6J mice were weaned at 4 weeks of age. Immediately after weaning they were put on 58% high fat diet (D12331i, Research Diet) through out the study. The DIO mice at 13 weeks of age weighing in the range of 28-40 g were used in this study.
Administration of NT-4/5: NT-4/5 was obtained from Genentech Inc. or produced as described in U.S. Pat. No. 6,184,360. The mice were divided into 2 groups of equivalent body weight distribution (8 mice per group). The mice were acclimated individually in the Comprehensive Cage Monitoring System (CCMS, Columbus Instruments) for 2 days, in preparation for the indirect calorimetry, before the treatment started. Each group received 5 daily subcutaneous doses of either vehicle or 10 mg/kg of NT-4/5, respectively. Body weight and food intake were monitored 5 days per week through out the entire study. The CCMS monitoring and data analysis of oxygen consumption and carbon dioxide production were carried out according published and commonly accepted protocols as described at website of Jackson Laboratory. The body composition, i.e. percent lean body mass, fat content, and bone density was determined the day both before treatment started (day 0) and the final day of treatment (day 5) with a PIXImus Mouse Densitometer (GE Lunar Medical Systems, Madison, Wis.) using software version 1.46. Brommage et al., Am. J. Physiol. Endocrinol. Metab. 285: 454-459 (2003).

T1 sequence (Q16288 32-839): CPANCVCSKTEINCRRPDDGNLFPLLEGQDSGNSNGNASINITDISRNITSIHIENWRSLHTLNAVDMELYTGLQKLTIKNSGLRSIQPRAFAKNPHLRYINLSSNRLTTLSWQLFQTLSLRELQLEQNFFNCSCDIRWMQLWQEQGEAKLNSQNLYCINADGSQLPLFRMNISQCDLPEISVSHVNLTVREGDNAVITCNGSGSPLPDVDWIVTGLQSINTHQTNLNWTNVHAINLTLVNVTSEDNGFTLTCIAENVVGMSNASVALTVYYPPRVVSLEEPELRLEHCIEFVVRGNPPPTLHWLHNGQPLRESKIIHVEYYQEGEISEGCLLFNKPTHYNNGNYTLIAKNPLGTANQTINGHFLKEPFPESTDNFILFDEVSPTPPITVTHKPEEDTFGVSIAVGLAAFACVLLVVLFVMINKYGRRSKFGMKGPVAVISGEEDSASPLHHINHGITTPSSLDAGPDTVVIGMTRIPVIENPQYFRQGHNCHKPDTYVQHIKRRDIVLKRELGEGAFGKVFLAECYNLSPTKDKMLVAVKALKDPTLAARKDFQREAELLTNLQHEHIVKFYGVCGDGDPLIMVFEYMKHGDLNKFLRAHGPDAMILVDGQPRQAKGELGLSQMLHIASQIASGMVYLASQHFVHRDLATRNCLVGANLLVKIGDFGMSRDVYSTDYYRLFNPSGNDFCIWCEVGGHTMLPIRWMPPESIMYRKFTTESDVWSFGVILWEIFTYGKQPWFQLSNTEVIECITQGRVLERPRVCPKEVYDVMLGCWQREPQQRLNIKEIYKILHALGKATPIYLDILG

B1: NT-4/5: mature human neurotrophin-4/5 (SEQ ID NO:1), obtained from Genentech or produced in E. coli (protein, listed as Homo sapiens)
chain: GVSETAPASRRGELAVCDAVSGWVTDRRTAVDLRGREVEVLGEVPAAGGSPLRQYFFETRCKADNAEEGGPGAGGGGCRGVDRRHWVSECKAKQSYVRALTADAQGRVGWRWIRIDTACVCTLLSRTGRA
With B1 the “receptor tyrosine phosphorylation of trkC-expressing cell line” value (human TrkC) was “did not increase receptor tyrosine phosphorylation”, the “food intake as compared to vehicle” value (db/db mice; 2, 5, 10 and 20 mg/kg) was “significantly decreased food intake” and the food intake (db/db mice; Day 0, 2 mg/kg s.c. daily) was 7.79 g. For the same molecule, the food intake (db/db mice; Day 0, 5 mg/kg s.c. daily) was 7.26 g, the food intake (db/db mice; Day 0, 10 mg/kg s.c. daily) was 7.48 g and the food intake (db/db mice; Day 0, 20 mg/kg s.c. daily) was 7.46 g. It also gave a food intake (db/db mice; Day 1, 2 mg/kg s.c. daily) of 5.20 g, a food intake (db/db mice; Day 1, 5 mg/kg s.c. daily) of 4.55 g and a food intake (db/db mice; Day 1, 10 mg/kg s.c. daily) of 4.13 g. The food intake (db/db mice; Day 1, 20 mg/kg s.c. daily) was 4.11 g, the food intake (db/db mice; Day 2, 2 mg/kg s.c. daily) was 5.87 g and the food intake (db/db mice; Day 2, 5 mg/kg s.c. daily) was 4.86 g. For the same molecule, the food intake (db/db mice; Day 2, 10 mg/kg s.c. daily) was 5.18 g, the food intake (db/db mice; Day 2, 20 mg/kg s.c. daily) was 4.66 g and the food intake (db/db mice; Day 3, 2 mg/kg s.c. daily) was 3.89 g. It also gave a food intake (db/db mice; Day 3, 5 mg/kg s.c. daily) of 3.99 g, a food intake (db/db mice; Day 3, 10 mg/kg s.c. daily) of 3.85 g and a food intake (db/db mice; Day 3, 20 mg/kg s.c. daily) of 3.39 g. The food intake (db/db mice; Day 4, 2 mg/kg s.c. daily) was 4.79 g, the food intake (db/db mice; Day 4, 5 mg/kg s.c. daily) was 3.69 g and the food intake (db/db mice; Day 4, 10 mg/kg s.c. daily) was 4.00 g. It also gave a food intake (db/db mice; Day 4, 20 mg/kg s.c. daily) of 3.40 g, a food intake (db/db mice; Day 5, 2 mg/kg s.c. daily) of 4.19 g and a food intake (db/db mice; Day 5, 5 mg/kg s.c. daily) of 3.79 g. For the same molecule, the food intake (db/db mice; Day 5, 10 mg/kg s.c. daily) was 3.60 g, the food intake (db/db mice; Day 5, 20 mg/kg s.c. daily) was 3.06 g and the food intake (db/db mice; Day 6, 2 mg/kg s.c. daily) was 3.99 g. It also gave a food intake (db/db mice; Day 6, 5 mg/kg s.c. daily) of 3.00 g, a food intake (db/db mice; Day 6, 10 mg/kg s.c. daily) of 2.56 g and a food intake (db/db mice; Day 6, 20 mg/kg s.c. daily) of 1.71 g. It also gave a food intake (db/db mice; Day 7, 2 mg/kg s.c. daily) of 4.13 g, a food intake (db/db mice; Day 7, 5 mg/kg s.c. daily) of 3.48 g and a food intake (db/db mice; Day 7, 10 mg/kg s.c. daily) of 3.21 g. For the same molecule, the food intake (db/db mice; Day 7, 20 mg/kg s.c. daily) was 2.03 g, the serum corticosterone levels ([1]; 0.1-3 mg/kg/day, day 12) was “did not significantly change” and the testoterone levels ([1]; 0.1-3 mg/kg/day, day 12) was “did not significantly change”. For the same molecule, the “thyroid stimulating hormone (TSH) level” value ([1]; compared to the vehicle control) was “no change”, the “Total thyroxine T4 reduction” value ([1]; daily 3 mg/kg, still within normal range) was “about 33%” and the “treatment groups showing a statistically significant difference from vehicle in water intake” value ([1]; day 5 through 7, 0.1, 0.3, 1 and 3 mg/kg) was “None”. The “body fat content” value (DIO mice; 10 mg/kg s.c. daily) was “significantly reduced”, the “body weight” value (DIO mice; 10 mg/kg s.c. daily) was “significantly reduced” and the “food intake” value (DIO mice; 10 mg/kg s.c. daily) was “significantly reduced”. The “lean body mass” value (DIO mice; 10 mg/kg s.c. daily) was “but not the lean body mass”, the “Bone mineral density (mean±SEM)” value (DIO mice; day 0, 10 mg/kg group) was 0.5235±0.0158 g/cm^2 and the “Bone mineral density (mean±SEM)” value (DIO mice; day 5, 10 mg/kg s.c. daily) was 0.5452±0.0142 g/cm^2. For the same molecule, the “bone density versus vehicle” value (DIO mice; day 5, P<0.05) was “significantly different from that of the vehicle”.
